test: yeast display, Sf9 membrane polyspecificity reagent, FACS + sequencing; frameworks hold sequencing errors
Summary of the method: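 Nanobodies from a synthetic yeast display library (Saccharomyces cerevisiae BJ5465), induced 36–48 hours with galactose, were stained 1 hour at 4 °C with 10% biotinylated, detergent-solubilized Sf9 membrane reagent, enriched on streptavidin microbeads, then FACS-sorted. Anti-HA (expression) and streptavidin (reagent binding) fluorescence set low and high (top ~1%) gates. Polyreactivity labels come from the gate of origin. Genes were colony-PCR amplified, MiSeq 2 × 250 sequenced and filtered by CDR length.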

Sequence | polyreactivity (PSR sort gate)
QVQLVESWGGLVQAGGSLRLSCAASRIIFRWYAMGWYRKAPGTERELVAAITSDGNTYYADSVKGRFTISRDNAKNTVYLQMNSLKPEDTAVYYCAARLSYYCRMNYWGQGTQVNVSS | high polyreactivity
QVQLVESWGGLVQAGGSLSLSCAASGRIIARNAMGWYRQAPGKEREFVAAISFSDGSTYYADSVKGRFTISRDNAKNTVYLQMNSLKPEDSAVYYCNKGASPDDYDYWGQGTQVTVSS | low polyreactivity
QVQLVETAGGLVQAGGSLRLSSAASRSTFGPYAMGWYSQSPGKERELVAAISRRGTSTYYADSVKGRFTISRDNAKHTVYLQMNSLKPDDTAVYYCNAVTSSFYIRDSDYWGQGNQVTVSS | high polyreactivity
QVQLVETGGCLVQAGGSLPLSCAASGRTFRPYAKGLYRPAPGKERELVAAITRGGSTKYADSVKGRFTISRDNAKNTVYLQMNSLKPEDTAVYYCAPDYSVYHRLFDYWGQGTQVTVSS | high polyreactivity
QVQLVETGGGLDQAGGSLRLSCAASGFTLHRNAKGWYRQAPRKERELVATNSWTGGSTYYADSVKGRFTISRDTAKNTVYLQMNSLKPEDTAVYYCAARGHWSIYGYYYLGATAFGYWGQGTQVTVSS | low polyreactivity
QVQLVETGGGLFQAGGSLRLSCAASGFSFGRYAMGWYRQAPGKERELVAAISRGGSSTYYADSVKGRFTISRDTAKNTVYLQMNSLKPEDTAVYYCNKVIIWARFDYWGQGTQVTVSS | high polyreactivity
QVQLVETGGGLFQAGGSLRLSCAPSGFTFRYNAMGWYRQAPGKERELVAAISWSGGSTYYADSVKGRFTISRDNAKNTVYLQMNSLKPEDTAVYYSNAEYDDYAGEFDYWGQGTQVTGSS | low polyreactivity
QVQLVETGGGLLQAGGSLRISSAASGRIFPSFSMGWYRQAPGKERELVAAITRGGASTYYADSVKGRFTISRDNAKNTVYLQMNSLKPEDTAVYYCAKDAYRYGGLSWTTGMDYWGQGTQVTVSS | high polyreactivity
QVQLVETGGGLLQAGGSLRLSCAASGFTFDFYAMGWYRQAPGKERELVAAINWSGSSTYYADSVKGRFTISRDNAKNTVYLQMNSLKPEDTAVYYCAAQVYYTLFPDVYTMYYWGQGTQVTVSS | high polyreactivity
QVQLVETGGGLVHAGGSLRLSCAASGSIFYAYDMGWYRQAPGKERELVAAINWSGDSTYYADSVKGRVTISRDNANNTVYLQMNSLKPEDTAVYYCAAVSGSGDSGEYDYWGQGTQVTVSS | low polyreactivity
QVQLVETGGGLVHAGGSLRLSCAASGSILRPNAMGWYRQAPGKERELVAAITTSGGSTYYADSVKGRFTISRDNAKNTVYLQMNSLKPEDTAVYYCAAEYVYYYYLYLYYYWGQGTQVTVSS | high polyreactivity
QVQLVETGGGLVHAGGSLRLSSAASGRTFVENDMGWYRQAPGKERELVAAITYRGGRTFYADSVKGSFTISRDNAKNTVYLQMNSRKPEDTAVYSCNAVRRTGGHGVYWGQGTQVTVSS | high polyreactivity
QVQLVETGGGLVQAGGILLLSCAASRIIFPWYTMGWYRQAPGKERELVAAINYSSGDTYADSVKGRFTISRDNAKNTVYLQMNSLKPEDTAVYYCDAEDPEYATYWYKYGYWGLGTQVTVSS | low polyreactivity
QVQLVETGGGLVQAGGILRLSCAASGSIFKAYAMGWYRQAPGKERELVAAITWSGGSTYYADSVKGRFTNSRDNAKNTVYLQMNSLKPEDTAVYYCAATLGLWAYYLYDYWGQGTQVTVSS | low polyreactivity
QVQLVETGGGLVQAGGILRLSCAASGSTFYRNAMGWYRQAPGKERELVAAINSTDSTNYADSVKGRFTISRDNAKNTVYLQMNSLKPEDTAVYFCAAVGVNLATAEYDYWGQGTQVTVSS | low polyreactivity
QVQLVETGGGLVQAGGILRLSCAATGSIFKAYDMGWYRKAPAKERELVAAITWSGGSTYYADSVKGRFTISRHNAKNTVYLQMNSLKPEDTAVYYCAAKLGLWAYYLYDYWGQGTQVTVSS | low polyreactivity
QVQLVETGGGLVQAGGSHSLSCAAAGSTFSRYAMGWYRQAPGTETELVAGISWSGGNTYYADSVKGRVTISRDNAKNTVYLQMNSLKPEETAVYYCAADFLEYWVVYGWAEYEYWAQGTQVTVSS | low polyreactivity
QVQLVETGGGLVQAGGSIRLTCAASGLTYTGNAIVWSRQAPGKEMECVAAIRWSAGSTYYADSVKGRFTISRDNAKNTVYLQMNSLKPEDTAVYYCNAALNVSGHYPNDYWGQGTQVTVSS | low polyreactivity
QVQLVETGGGLVQAGGSLRISCAASGGIFVFYAMGWYRQAPGKERELVAAISWSGTSTYYADSVKGGFTISRDNAKYTVYLQMNRLKPEDTAVYYCAALYPYQYVRGGYWGQGTQVTVSS | high polyreactivity
QVQLVETGGGLVQAGGSLRISCAASGRIFGVYAMGWYRQAPGKERELVAAITRGASTYYADSVKGRFTISRDNAKNTVYLQMNILKPEDTAVYYCAVSQYRGIYRKYDYWGQGTQVTVSS | high polyreactivity
QVQLVETGGGLVQAGGSLRLRCAPSGSTFSEYAMGWYRQAPGKERELVPAITSGGITNYADSVKGRFTISRDNSKNTVYFKMNSLKPEDTAVYYCNTQDVYGDPVESLVDYDYWGQGTQVTVSS | high polyreactivity
QVQLVETGGGLVQAGGSLRLSCAASGFIFYNAMGWYRQAPGKERELVAAISSGGNTNYADSVKGRFTISRDNAKNTVYLQMNSLKPEDTAVYYCNAGLYQYEAWAYYIRYDYWGQGTQVTVSS | low polyreactivity

Sequence | polyreactivity (PSR sort gate)
QVQLVETGGGLVQAGGSLRLSCAASGGIFEINVMGWYRQAPGKERELVAGINWSGTSTYFADSVKGRFTISRDNAKNTVYLQMNTLTPEDTSVYYCAAESYYRYVVPYDYWGQGTQVTVSS | high polyreactivity
QVQLVETGGGLVQAGGSLRLSCAASGIIFDGNTMGWYRQAPGKERELVAGIDFSDDSTNYADSVKGRFTISRDNAKNTVYLQMNSLKPEDTAVYYCAADTRSPSAHEVDYWGQGTQVTVSS | low polyreactivity
QVQLVETGGGLVQAGGSLRLSCAASGIIFSRYAMGWYRQAPGKERELVAAISTSGGRTFYADSVKGRFTISRDNAKNTVYLQMNSLKPEDTAVYYCAVDDLGWTTGGYLYLYGYWGQGTQVTVSS | high polyreactivity
QVQLVETGGGLVQAGGSLRLSCAASGITFFEYAMGWYRQAPGKERELVAGIRYSGSTTYYSDSVKGRFTISRDNAKNTVYLQMNSLKPEDSAVYYCNVDYYSGLYDYYSWGQGTQVTVSS | low polyreactivity
QVQLVETGGGLVQAGGSLRLSCAASGITFFRNAMGWYRQAPGKERELVAAISRGGGSTYYADSVKGRFTISRDNAKKTVYLQMNSLKPEDTAVYYCAEYKYGTGVKMDYWGQGTQVTVSS | high polyreactivity
QVQLVETGGGLVQAGGSLRLSCAASGRIFRGNTMGWYRQAPGKERELVAAITIRGRTYYADSVKGRFTISRDNAKNTVYLQMNSLKPEDTAVYYCAVASAGDNDYGGQGTQVTVSS | low polyreactivity
QVQLVETGGGLVQAGGSLRLSCAASGRIFVGYAKGWYRQAPGKERELVAAISARGGSTYYADSVKGRFTISRDNAKNTVYLQMNSLKPEDTAVYYCAADEASSRGYYDYDYWGQGTQVTVSS | low polyreactivity
QVQLVETGGGLVQAGGSLRLSCAASGRTFAYNAMGWYRQAPGKARELVAAITGSGGRTYYADSVKGRFTISRDNAKNTVYLQMNSLKPEETAVYYCAAEGPEIKYYYWGQGTQVTVSL | low polyreactivity
QVQLVETGGGLVQAGGSLRLSCAASGRTFAYYAMGWYRQAPGKERELVAAISSGGRTNYADSVKGLFTISRDNAKNTVYLQMNSLKPEDTAVYYCAAVRWVYPRRYYYWGQGTQVTVSS | high polyreactivity
QVQLVETGGGLVQAGGSLRLSCAASGRTFEYNAMGWYRQAPGKERELVATIRYSGTSTYADSVKGRFTISRDNAKNPVYLQMNSQKPEDTAVYYCAKQVRYYGYKYNYWGQGTQVTVSS | high polyreactivity
QVQLVETGGGLVQAGGSLRLSCAASGRTFQYYAMGWYRQATGTERELVAAITSGGSTYYADSVKGRFTISRDNAKKTVYLQMNSLKPEDTAVSYCAATFYYSGHDDYWGQVTQVTVSS | low polyreactivity
QVQLVETGGGLVQAGGSLRLSCAASGRTFYYNGRGWYRQAPGKERELVAAITSGGTTSYADSVKGRFTISRDNAKNTVYLQMNSLKPEETAVYYCNADYWAVNYDYWGQGTQVTVSS | low polyreactivity
QVQLVETGGGLVQAGGSLRLSCAASGRTLSQNTMGWNRQAPRKEREFVASITYSGGITYYADSVKGRFTISRDNAKNTVYLQMNSLKPEDTAVYYCNKRGSHYWYSYPGDYWGQGTQVTVSS | low polyreactivity
QVQLVETGGGLVQAGGSLRLSCAASGRTYLIYAMGWYRQAPGKERELVAAIRDRGATTYYADSVKGRFTISRDNAKNTVYLQMNSLKPEETAVYYCAARNGAYPALKEGDYWGQGTQVTVSS | high polyreactivity
QVQLVETGGGLVQAGGSLRLSCAASGSIADVYAMGWYRQAPGKERELVAAITSGASTYYADSVKGRFTISRDNAKNTVYLQMNSLKPEDTAVYYCTKSAAITGNGHMDYWGQGTQVTVSS | low polyreactivity
QVQLVETGGGLVQAGGSLRLSCAASGSIFFLYAMGWYRQAPGKERELVAAISRTGSTYADSVKGRLTISRDNAKNTVYLQMNSLKPEDTAVYYCDAEYRYYWYGTMNYWGQGTQVTVSS | low polyreactivity
QVQLVETGGGLVQAGGSLRLSCAASGSIFIYYAMGWYRQAPGKERELVAAIRLSSGSTYYADSVKGRFTISRDNSKNTVYLQMIRLKPEYTAVYYCAARRKRPFSVYDHWGKGTQVTVSS | high polyreactivity
QVQLVETGGGLVQAGGSLRLSCAASGSIFLGNAMGWYRQAPGKERELVAAISGGDSTNYADSVKGRFTISRDNAKNTVYLQMKSLKPEDTAVYYCNALTHWAPASYEYDYWGQCTQVTVSS | low polyreactivity
QVQLVETGGGLVQAGGSLRLSCAASGSIFTPYAIGWYRKAPGKDRELVAAITSRGGTTYYADSVKGRFTISRDNAKNTVYLQMNSLKPEDTAVYYCAAEYYHLYYYQFDYWGQGTQVTVSS | high polyreactivity
QVQLVETGGGLVQAGGSLRLSCAASGSIFVYYAMGWYRQAPGKERELVAAISSRGGRTYYADSVKGRFTISRDNAKHTVYLQMNSLIPEDTAVYYCAASPDYSRYWVYAPNRRLGYWGQGTQVTVSS | high polyreactivity
QVQLVETGGGLVQAGGSLRLSCAASGSISPINAMGWYRQPPGKERELVAAINGGGSTYYADSVKGRFTISRDNAKNTVYLQMNSLKPEDTAVYYCSRDALHYAGSLHRYGYWGQGTQVTLSS | low polyreactivity

From the nanobody polyreactivity screen of Harvey et al. (2022)
